This assay deals with HSP90αM domain (solid phase assays of Figure 2B and 2C). Kind of assay: ELISA.

B1: 45-kDa gelatin-binding FN fragment (FN45) (domain or fragment)
chain: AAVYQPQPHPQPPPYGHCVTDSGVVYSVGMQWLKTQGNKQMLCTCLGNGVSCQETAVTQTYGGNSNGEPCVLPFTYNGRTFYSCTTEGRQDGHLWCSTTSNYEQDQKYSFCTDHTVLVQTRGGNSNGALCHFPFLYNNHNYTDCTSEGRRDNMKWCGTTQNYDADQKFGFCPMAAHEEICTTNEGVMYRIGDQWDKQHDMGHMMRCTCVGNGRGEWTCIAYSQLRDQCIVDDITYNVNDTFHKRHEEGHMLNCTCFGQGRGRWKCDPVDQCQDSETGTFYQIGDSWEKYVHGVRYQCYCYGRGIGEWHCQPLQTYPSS
Take B1: the dissociation constant Kd came to 222 nM.

B2: N-terminal FN 30-kDa heparin-binding fragment (FN30) (domain or fragment)
chain: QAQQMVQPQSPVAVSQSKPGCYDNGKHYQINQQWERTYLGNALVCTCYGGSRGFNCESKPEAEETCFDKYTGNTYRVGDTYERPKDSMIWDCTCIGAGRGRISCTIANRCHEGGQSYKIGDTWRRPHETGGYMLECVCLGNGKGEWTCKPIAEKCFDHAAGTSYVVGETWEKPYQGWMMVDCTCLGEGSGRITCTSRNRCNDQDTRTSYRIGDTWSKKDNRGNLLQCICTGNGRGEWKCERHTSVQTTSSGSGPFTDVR
Take B2: the Kd turned out to be 65.1 nM.
